IntAct's records for PubMed 20223215

target: lrp8_human LRP8 (UniProt Q14114)
Chain of UniProt Q14114 (Q14114 whole entry): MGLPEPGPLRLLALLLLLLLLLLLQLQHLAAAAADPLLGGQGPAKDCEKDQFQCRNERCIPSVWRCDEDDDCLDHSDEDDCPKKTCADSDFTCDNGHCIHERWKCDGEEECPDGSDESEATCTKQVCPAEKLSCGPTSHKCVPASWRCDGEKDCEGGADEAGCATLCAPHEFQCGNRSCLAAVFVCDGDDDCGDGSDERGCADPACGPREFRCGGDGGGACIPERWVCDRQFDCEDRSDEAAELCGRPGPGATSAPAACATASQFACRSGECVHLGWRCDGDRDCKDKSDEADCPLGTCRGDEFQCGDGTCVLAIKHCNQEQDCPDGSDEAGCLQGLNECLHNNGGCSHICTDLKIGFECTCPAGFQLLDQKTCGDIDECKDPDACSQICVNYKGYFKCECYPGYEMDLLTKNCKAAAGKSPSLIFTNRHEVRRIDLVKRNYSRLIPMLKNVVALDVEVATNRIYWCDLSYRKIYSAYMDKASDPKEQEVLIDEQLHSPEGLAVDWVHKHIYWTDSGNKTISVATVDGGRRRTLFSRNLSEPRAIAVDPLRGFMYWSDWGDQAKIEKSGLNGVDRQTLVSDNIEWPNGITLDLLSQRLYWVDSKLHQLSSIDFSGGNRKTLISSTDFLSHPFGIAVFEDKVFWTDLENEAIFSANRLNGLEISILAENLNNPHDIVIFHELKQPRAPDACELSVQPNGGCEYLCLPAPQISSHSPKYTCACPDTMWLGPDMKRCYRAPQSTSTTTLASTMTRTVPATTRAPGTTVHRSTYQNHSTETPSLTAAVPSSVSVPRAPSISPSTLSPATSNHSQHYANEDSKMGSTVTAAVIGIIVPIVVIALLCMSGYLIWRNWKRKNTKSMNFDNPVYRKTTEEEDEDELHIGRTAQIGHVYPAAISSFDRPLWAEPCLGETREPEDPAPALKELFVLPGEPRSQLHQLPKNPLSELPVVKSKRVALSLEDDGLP

| Substance | effect of a mutation on the interaction |
| --- | --- |
| Reelin (Mus musculus), Q60841 K2360A | disrupting interaction |
| Reelin (Mus musculus), Q60841 K2467A | disrupting interaction strength |
| Reelin (Mus musculus), Q60841 K2467R | disrupting interaction strength |
